Measured values: patent US20260028403A1 (Zymeworks, published 2026)

B1: v37665 (bispecific antibody, human IgG1, kappa, L234A L235A)
heavy 1: not shown
heavy 2: QVQLVESGGGLVQPGGSLRLSCSVSGIDLSSNPMIWVRQAPGKGLQYIGIIDTDGSTYYADWAKGRFTISKDSTTVYLQINSPRAEDTAVYYCARRLHGSSNGYYDDLWGQGTLVTVSSGGGGSGGGGSGGGGSGGGGSDGQMTQSPSSVSASVGDRVTITCQASQSIYSYLSWYQQKPGQRPKLLIYKASTLASGVPSRFSGSGSGTDFTLTISSVQPEDFATYYCQQGYTVTNVDKNTFGGGTKVEIKAAEPKSSDKTHTCPPCPAPEAAGGPSVFLFPPKPKDTLMISRTPEVTCVVVSVSHEDPEVKFNWYVDGVEVHNAKTKPREEQYNSTYRVVSVLTVLHQDWLNGKEYKCKVSNKALPAPIEKTISKAKGQPREPQVYVLPPSRDELTKNQVSLLCLVKGFYPSDIAVEWESNGQPENNYLTWPPVLDSDGSFFLYSKLTVDKSRWQQGNVFSCSVMHEALHNHYTQKSLSLSPG
light: DIQMTQSPSSLSASVGDRVTITCRASESVEYYVTSLMQWYQQKPGKAPKLLIYAASNVDSGVPSRFSGSGSGTDFTLTISSLQPEDIATYYCQQSRKVPFTFGGGTKVEIKRTVAAPSVFIFPPSDEQLKSGTASVVCLLNNFYPREAKVQWKVDNALQSGNSQESVTEQDSKDSTYSLSSTLTLSKADYEKHKVYACEVTHQGLSSPVTKSFNRGEC
notes: 13B08 VH-VL scFv); also called anti-(CLDN18.2xCD28) bispecific control
B2: v37666 (bispecific antibody, human IgG1, kappa, L234A L235A)
heavy 1: not shown
heavy 2: EPKSSDKTHTCPPCPAPEAAGGPSVFLFPPKPKDTLMISRTPEVTCVVVSVSHEDPEVKFNWYVDGVEVHNAKTKPREEQYNSTYRVVSVLTVLHQDWLNGKEYKCKVSNKALPAPIEKTISKAKGQPREPQVYVLPPSRDELTKNQVSLLCLVKGFYPSDIAVEWESNGQPENNYLTWPPVLDSDGSFFLYSKLTVDKSRWQQGNVFSCSVMHEALHNHYTQKSLSLSPG
light: B1 light
notes: Fc without paratope; also called anti-(CLDN18.2xCD28) bispecific control
B3: v37898 (antibody, V domains shown)
VH: QVQLQESGPGLVKPSETLSLTCAVSGFSLTSYGVHWIRQPPGKGLEWLGVIWPGGGTNFNSALMSRLTISEDTSKNQVSLKLSSVTAADTAVYYCARDRAYGNYLYAMDYWGQGTLVTVSS
VL: DIQMTQSPSSLSASVGDRVTITCRASESVEYYVTSLLNWYQQKPGKAPKLLIYAASNVDSGVPSRFSGSGSGTDFTLTISSLQPEDIATYYCQQSRKVPFTFGGGTKVEIK
notes: OAA format as v34891
B4: v37664 (bispecific antibody)
heavy: QVQLVESGGGLVQPGGSLRLSCSVSGIDLSSNPMIWVRQAPGKGLQYIGIIDTDGSTYYADWAKGRFTISKDSTTVYLQINSPRAEDTAVYYCARRLHGSSNGYYDDLWGQGTLVTVSSGGGGSGGGGSGGGGSGGGGSDGQMTQSPSSVSASVGDRVTITCQASQSIYSYLSWYQQKPGQRPKLLIYKASTLASGVPSRFSGSGSGTDFTLTISSVQPEDFATYYCQQGYTVTNVDKNTFGGGTKVEIKGGGGSGEVQLVESGGGLVQPGGSLRLSCAASGVTFNYYGMSWIRQAPGKGLEWVASITSSGGRIYYPDSVKGRFTISRENTQKTLYLQMNSLRAEDTAVYYCTLDGRDGWVAYWGQGTLVTVSSASTKGPSVFPLAPSSKSTSGGTAALGCLVKDYFPEPVTVSWNSGALTSGVHTFPAVLQSSGLYSLSSVVTVPSSSLGTQTYICNVNHKPSNTKVDKKVEPKSCDKTHTCPPCPAPEAAGGPSVFLFPPKPKDTLMISRTPEVTCVVVSVSHEDPEVKFNWYVDGVEVHNAKTKPREEQYNSTYRVVSVLTVLHQDWLNGKEYKCKVSNKALPAPIEKTISKAKGQPREPQVYVLPPSRDELTKNQVSLLCLVKGFYPSDIAVEWESNGQPENNYLTWPPVLDSDGSFFLYSKLTVDKSRWQQGNVFSCSVMHEALHNHYTQKSLSLSPG
light: NFMLTQPHSVSESPGKTVTISCKRNTGNIGSNYVNWYQQHEGSSPTTIIYRNDKRPDGVSDRFSGSIDRSSKSASLTISNLKTEDEADYFCQSYSSGFIFGGGTKLTVLGQPKAAPSVTLFPPSSEELQANKATLVCLISDFYPGAVTVAWKADSSPVKAGVETTTPSKQSNNKYAASSYLSLTPEQWKSHRSYSCQVTHEGSTVEKTVAPTECS
Fc: not shown
notes: also called anti-(CLDN18.2xCD3) bispecific control
B5: v37669 (bispecific antibody)
heavy 1: EVQLVESGGGLVQPGGSLRLSCAASGVTFNYYGMSWIRQAPGKGLEWVASITSSGGRIYYPDSVKGRFTISRENTQKTLYLQMNSLRAEDTAVYYCTLDGRDGWVAYWGQGTLVTVSSASTKGPSVFPLAPSSKSTSGGTAALGCLVKDYFPEPVTVSWNSGALTSGVHTFPAVLQSSGLYSLSSVVTVPSSSLGTQTYICNVNHKPSNTKVDKKVEPKSCDKTHTCPPCPAPEAAGGPSVFLFPPKPKDTLMISRTPEVTCVVVSVSHEDPEVKFNWYVDGVEVHNAKTKPREEQYNSTYRVVSVLTVLHQDWLNGKEYKCKVSNKALPAPIEKTISKAKGQPREPQVYVYPPSRDELTKNQVSLTCLVKGFYPSDIAVEWESNGQPENNYKTTPPVLDSDGSFALVSKLTVDKSRWQQGNVFSCSVMHEALHNHYTQKSLSLSPGGGGGSGNFMLTQPHSVSESPGKTVTISCKRNTGNIGSNYVNWYQQHEGSSPTTIIYRNDKRPDGVSDRFSGSIDRSSKSASLTISNLKTEDEADYFCQSYSSGFIFGGGTKLTVLGGGGSGGGGSGGGGSGGGGSEVQLVESGGGLVQPGGSLRLSCAASGVTFNYYGMSWIRQAPGKGLEWVASITSSGGRIYYPDSVKGRFTISRENTQKTLYLQMNSLRAEDTAVYYCTLDGRDGWVAYWGQGTLVTVSS
heavy 2: B1 heavy 2
light: B4 light
notes: bivalent for CD3; also called 2x1 anti-(CD3xCD3xCLDN18.2) control
B6: v37667 (bispecific antibody)
heavy 1: not shown
heavy 2: B1 heavy 2
light: B4 light
notes: as for B5

Tests used:
[1] = target: T1, Recombinant human/cynomolgus/rhesus macaque CD28 mouse IgG2a Fc fusion protein (Acro Biosystems) (human/cynomolgus/rhesus macaque, UniProt P10747 19-152); assay: SPR Biacore T200, CD28-mIgG2a Fc on CM5, construct injected, 1:1 model;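 also: fc fusion captured by amine coupling, run at 25 °C in HEPES buffer pH 7.4, association 140-500 s then dissociation 600-1200 s, values averaged over three independent runs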
T1 construct: bought; also called huCD28
Experimental: All SPR binding experiments were carried out using a BiacoreT200 instrument at 25° C. with 10 mM HEPES, 150 mM NaCl, 3 mM EDTA, and 0.05% Tween 20 at pH 7.4. Recombinant human/cynomolgus/rhesus macaque CD28 mouse IgG2a Fc fusion protein (Acro Biosystems) was covalently immobilized on CM5 sensor chips by amine coupling. Purified antibody constructs to be tested were injected on the sensor chip at 30 μL/min for 140-500 s following a dissociation for 600-1200 s. Resultant kₒₙ, koff and KD values were determined from fitting the sensorgrams using the 1:1 binding model with reported values as the mean of three independent runs.

[2] = target: huCD28 (human, UniProt P10747 19-152, limits assumed); assay: SPR, OAA format
[3] = target: T2, Recombinant human CD3 epsilon/delta heterodimer, his tag protein (Acro Biosystems) (human, UniProt P07766 23-126; P04234 22-105); assay: SPR Biacore T200, CD3 e/d-his on CM5, construct injected, 1:1 model;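 also: measured at 25 °C in HEPES-buffered saline with EDTA and Tween 20 at pH 7.4, values are means of three independent runs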
T2 construct: bought
Experimental: All SPR binding experiments were carried out using a BiacoreT200 instrument at 25° C. with 10 mM HEPES, 150 mM NaCl, 3 mM EDTA, and 0.05% Tween 20 at pH 7.4. Recombinant human CD3 epsilon/delta heterodimer, his tag protein (Acro Biosystems) was covalently immobilized on CM5 sensor chips by amine coupling. Purified antibody constructs to be tested were indirectly captured on the sensor chip by binding to the recombinant CD3 protein when injected at 30 μL/min for 140-500 s following a dissociation for 600-1200 s. Resultant kₒₙ, koff and KD values were determined from fitting the sensorgrams using the 1:1 binding model with reported values as the mean of three independent runs.

Binder | Kd [1] [nM] | koff [1] [s⁻¹] | kon [1] [M⁻¹ s⁻¹] | Kd [3] [nM] | koff [3] [s⁻¹] | kon [3] [M⁻¹ s⁻¹] | other results
B1 | 25.1 | 0.00224 | 89400 |  |  |  | 
B2 | 32.4 | 0.00217 | 67300 |  |  |  | 
B3 |  |  |  |  |  |  | Fold-change from WT [2]: 0.84 fold; Kd [2]: 73.7 nM; koff [2]: 0.00573 s⁻¹; kon [2]: 77900 M⁻¹ s⁻¹
B4 |  |  |  | 127 | 0.0228 | 180000 | 
B5 |  |  |  | 4.38 | 0.00255 | 589000 | 
B6 |  |  |  | 5.93 | 0.00778 | 1.28e+06 | 
